# Measured values from publication PMC2943598 (Nucleic Acids Research, 2010).
# B1: Methanothermobacter thermautotrophicus glutamyl-tRNA(Gln) amidotransferase GatDE, His6-tagged, O26802 1-435; O26803 1-619 (complex)
# chain 1: MSYQGRARKFLESASIDVGDMVLVEKPDVTYEGMVLDRADDADDRHIVLKLENGYNIGVEISDARIELLEKGSEPRIELPPVEAAEDPELPDVSIISTGGTVASIIDYRTGAVHPAFTADDLLRANPELLDIANIRGRAVFNILSENMKPEYWVETARAVYGEIKDGADGVVVAHGTDTMHYTSAALSFMLRTPVPVVFTGAQRSSDRPSSDASLNIQCSVRAATSEIAEVTVCMHATMDDLSCHLHRGVKVRKMHTSRRDTFRSMNALPLAEVTPDGIKILEENYRKRGSDELELSDRVEERVAFIKSYPGISPDIIKWHLDEGYRGIVIEGTGLGHCPDTLIPVIGEAHDMGVPVAMTSQCLNGRVNMNVYSTGRRLLQAGVIPCDDMLPEVAYVKMCWVLGQTDDPEMAREMMRENIAGEINERTSIAYFRG
# chain 2: MDWEKVGLKMGLEIHQQLDTESKLFCPCRTELTDSEPDHDIVRNLRPTQSELGKFDRAAFEEAMRKLHFHYENYHEETCLVEADEEPPHPLNPEALEIAVTIALLLNMRVVDEFHTMRKQVIDGSNTGGFQRTGLVATDGHLETPQGTVKIENLCLEEDAARRIRETGDGVVFRLDRLGIPLVEITTDPSMSDPQQLREVAYQIGQILRSTRVKRGLGTIRQDLNISIRDGARVEVKGVQDLDLIPEIVEREVKRQLSLVEIRDTLQERGAVVEDKIFDVSEVFADTESRIISSAESVLAVKLRGFDGLIGVEIQPGRRLGTEMADYAKKRGVSGIFHTDELPAYGITEEEVRGLRDAVGASQGDAVVMVAHERVTAENALREVIRRAEMAIQGVPEETRKALPDGNTQYLRPLPTSSRMYLETDIPLFRIEDDLLEGIRRNLPELPSEKKERIMRDYGLSEDLASQLVKRNLVDEFEALTEFRVDTTVIASLLAYTLRELRREGHDVDGLGLDELRDAIKLLEVGKISKDALRDIVACMADEGLAAEDAARKLNLLLLAEDEIESIIQEIVEGNLDMISERGMGAMGPLMGQAMGRLRGRADGKVVNRILREKIQERL
# B2: Methanothermobacter thermautotrophicus glutamyl-tRNA(Gln) amidotransferase GatDE, His6-tagged (complex)
# chain 1: B1 chain 1
# chain 2: B1 chain 2
# B3: Methanothermobacter thermautotrophicus non-discriminating glutamyl-tRNA synthetase, O26157 1-553 (enzyme)
# chain: MVPVEDLVYRYALLNAVKHRGRANPGAVMGAVMSNEPELRKMAPQVKEAVEAAVERVNSLSPEEQQQEMERLGLEITERKQKKRKGLRELAGVKGEVVLRFAPNPSGPLHIGHARAAILNHEYARKYDGRLILRIEDTDPRRVDPEAYDMIPADLEWLGVEWDETVIQSDRMETYYEYTEKLIERGGAYVCTCRPEEFRELKNRGEACHCRSLGFRENLQRWREMFEMKEGSAVVRVKTDLNHPNPAIRDWVSMRIVEAEHPRTGTRYRVYPMMNFSVAVDDHLLGVTHVLRGKDHLANREKQEYLYRHLGWEPPEFIHYGRLKMDDVALSTSGAREGILRGEYSGWDDPRLGTLRAIARRGIRPEAIRKLMVEIGVKIADSTMSWKKIYGLNRSILEEEARRYFFAADPVKLEVVGLPGPVRVERPLHPDHPEIGNRVLELRGEVYLPGDDLGEGPLRLIDAVNVIYSGGELRYHSEGIEEARELGASMIHWVPAESALEAEVIMPDASRVRGVIEADASELEVDDVVQLERFGFARLDSAGPGMVFYYAHK
# Legend:
# [1] = target: T1, Methanothermobacter thermautotrophicus non-discriminating glutamyl-tRNA synthetase (Methanothermobacter thermautotrophicus), O26157; test: nitrocellulose filter-binding competition; settings: remark: other sources report otherwise
# T1 chain: B3 chain
# [2] = target: T2, Alexa fluor 488-labeled M. thermautotrophicus ND-GluRS (Methanothermobacter thermautotrophicus), O26157; test: fluorescence polarisation; settings: remark: other sources report otherwise
# T2 chain: B3 chain
# SEC = target: the molecule itself; test: SEC
# [3] = target: T3, Methanothermobacter thermautotrophicus glutamyl-tRNA(Gln) amidotransferase GatDE, His6-tagged (Methanothermobacter thermautotrophicus), O26802; test: SEC; settings: remark: other sources report otherwise
# T3 chain 1: B1 chain 1
# T3 chain 2: B1 chain 2
binder,measurement,setting,value
B1,Ki,[1],33 nM
same,Kd,[2],100 nM
B2,stoichiometry N,SEC,2
B3,stoichiometry N (ND-GluRS monomers per GatDE homodimer),[3],2
